In publication PMC6985287, “Novel Immunomodulatory Proteins Generated via Directed Evolution of Variant IgSF Domains” (Frontiers in Immunology, 2019) one finds Kd data, which are given here for one molecule.

The assay deals with T1, wild type human ICOSL-Fc fusion protein (human, UniProt O75144 19-256).
T1 construct: ICOS ligand (ICOSL), human, extracellular domain (ECD); secreted with the human immunoglobulin VH5-51 signal peptide; Fc dimer; also called WT ICOSL; WT ICOSL-Fc; source: Expi293F, transient expression, purified (Protein A, SEC); not shown: Fc (IgG1, lacking effector function), C-terminal, kept
T1 sequence (looked up): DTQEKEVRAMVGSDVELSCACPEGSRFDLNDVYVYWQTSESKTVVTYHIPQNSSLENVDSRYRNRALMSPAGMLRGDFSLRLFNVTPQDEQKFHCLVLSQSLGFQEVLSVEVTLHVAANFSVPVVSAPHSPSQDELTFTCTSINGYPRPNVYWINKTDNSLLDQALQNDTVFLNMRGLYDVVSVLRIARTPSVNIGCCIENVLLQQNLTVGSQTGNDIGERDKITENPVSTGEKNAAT
As to the kind of experiment: BLI; ForteBio Octet QKe; receptor-Fc loaded on the sensor (Protein A sensors in the methods, anti-human capture AHC sensors in the table's footnote); ICOSL-Fc proteins in four-point titrations (100, 50, 25, 12.5 nM); global 1:1 fit; both partners Fc dimers, KD includes avidity. The conditions noted are these: both partners purified. Background: In BLI a coated tip is dipped into the sample, and binding shifts an interference pattern.

B1: human recombinant ICOS-Fc fusion protein (Fc fusion, UniProt Q9Y6W8 21-140, looked up)
chain: EINGSANYEMFIFHNGGVQILCKYPDIVQQFKMQLLKGGQILCDLTKTKGSGNTVSIKSLKFCHSQLSNNSVSFFLYNLDHSHANYYFCNLSIFDPPPFKVTLTGGYLHIYESQLCCQLK
notes: Inducible Costimulator (ICOS), human, soluble Fc fusion; also called soluble ICOS-Fc; source: bought: R&D Systems
B1 yielded a Kd of 0.883 nM.
